Reference: ChEMBL document CHEMBL1128918, “Deuterium isotope effects on porphobilinogen synthesis catalysed by 5-aminolaevulinic acid dehydratase” (Bioorg Med Chem Lett, 1996)

Substrate: NCC(=O)CCC(=O)O
Test: The Michaelis-Menten rate of reaction catalyzed by ALA dehydratase from Bacillus subtilis measured spectrophotometrically

B1: Delta-aminolevulinic acid dehydratase (Homo sapiens), P13716 (protein)
chain: MQPQSVLHSGYFHPLLRAWQTATTTLNASNLIYPIFVTDVPDDIQPITSLPGVARYGVKRLEEMLRPLVEEGLRCVLIFGVPSRVPKDERGSAADSEESPAIEAIHLLRKTFPNLLVACDVCLCPYTSHGHCGLLSENGAFRAEESRQRLAEVALAYAKAGCQVVAPSDMMDGRVEAIKEALMAHGLGNRVSVMSYSAKFASCFYGPFRDAAKSSPAFGDRRCYQLPPGARGLALRAVDRDVREGADMLMVKPGMPYLDIVREVKDKHPDLPLAVYHVSGEFAMLWHGAQAGAFDLKAAVLEAMTAFRRAGADIIITYYTPQLLQWLKEE
Km: 241 µM [middle of 4 runs]
